Test results published in patent US20090068653A1, “BIOCHEMICAL AND GENETIC ANALYSIS FOR PREDICTION OF BREAST CANCER RISK” (priority 2006, published 2009).
Read-outs that look alike come from different tables or passages of the source.

Assays:
[1] = cited from earlier work
renal cancer = details: hamster, in vivo; cited from earlier work
CYP1B1 = details: cited from earlier work

Molecule	Km (CYP1B1; reaction E2 → 2-OHE2, CYP1B1) [µM]	Km (CYP1B1; reaction E2 → 4-OHE2, CYP1B1) [µM]	also measured
CC/C(=C(\c1ccccc1)c1ccc(OCCNC)cc1)c1ccccc1 [N-desmethyl tamoxifen]	–	–	average steady-state plasma concentration ([1]; 10 mg tamoxifen twice daily for 3 months, patients): 336 ng/mL; average steady-state plasma concentration ([1]; 20 mg tamoxifen once daily for 3 months): 353 ng/mL; time to steady state concentrations after initiation of therapy ([1]; in vivo): about 8 weeks; average peak plasma concentration ([1]; single oral dose of 20 mg tamoxifen): 15 ng/mL; half-life ([1]; suggested by time to steady state): approximately 14 days
C[C@]12CC[C@@H]3c4cc(O)c(O)cc4CC[C@H]3[C@@H]1CCC2=O [2-OHE1]	–	–	induction of renal cancer (renal cancer): not
48Gly-119Ala-432Val-453Asn: CYP1B1 variant enzyme (protein, UniProt Q16678 1-543, looked up, variant R48G) Cytochrome P450 1B1: MGTSLSPNDPWPLNPLSIQQTTLLLLLSVLATVHVGQRLLRQRRRQLGSAPPGPFAWPLIGNAAAVGQAAHLSFARLARRYGDVFQIRLGSCPIVVLNGERAIHQALVQQGSAFADRPAFASFRVVSGGRSMAFGHYSEHWKVQRRAAHSMMRNFFTRQPRSRQVLEGHVLSEARELVALLVRGSADGAFLDPRPLTVVAVANVMSAVCFGCRYSHDDPEFRELLSHNEEFGRTVGAGSLVDVMPWLQYFPNPVRTVFREFEQLNRNFSNFILDKFLRHCESLRPGAAPRDMMDAFILSAEKKAAGDSHGGGARLDLENVPATITDIFGASQDTLSTALQWLLLLFTRYPDVQTRVQAELDQVVGRDRLPCMGDQPNLPYVLAFLYEAMRFSSFVPVTIPHATTANTSVLGYHIPKDTVVFVNQWSVNHDPLKWPNPENFDPARFLDKDGLINKDLTSRVMIFSVGKRRCIGEELSKMQLFLFISILAHQCDFRANPNEPAKMNFSYGLTIKPKSFKVNVTLRESMELLDSAVQNLQAKETCQ	12	6.6	–
48Arg-119Ser-432Val-453Asn: CYP1B1 variant enzyme (protein, UniProt Q16678 1-543, looked up, variant A119S) Cytochrome P450 1B1: MGTSLSPNDPWPLNPLSIQQTTLLLLLSVLATVHVGQRLLRQRRRQLRSAPPGPFAWPLIGNAAAVGQAAHLSFARLARRYGDVFQIRLGSCPIVVLNGERAIHQALVQQGSAFADRPSFASFRVVSGGRSMAFGHYSEHWKVQRRAAHSMMRNFFTRQPRSRQVLEGHVLSEARELVALLVRGSADGAFLDPRPLTVVAVANVMSAVCFGCRYSHDDPEFRELLSHNEEFGRTVGAGSLVDVMPWLQYFPNPVRTVFREFEQLNRNFSNFILDKFLRHCESLRPGAAPRDMMDAFILSAEKKAAGDSHGGGARLDLENVPATITDIFGASQDTLSTALQWLLLLFTRYPDVQTRVQAELDQVVGRDRLPCMGDQPNLPYVLAFLYEAMRFSSFVPVTIPHATTANTSVLGYHIPKDTVVFVNQWSVNHDPLKWPNPENFDPARFLDKDGLINKDLTSRVMIFSVGKRRCIGEELSKMQLFLFISILAHQCDFRANPNEPAKMNFSYGLTIKPKSFKVNVTLRESMELLDSAVQNLQAKETCQ	19	9.3	–
48Gly-119Ser-432Val-453Ser: CYP1B1 variant enzyme (protein, UniProt Q16678 1-543, looked up, variant R48G A119S N453S) Cytochrome P450 1B1: MGTSLSPNDPWPLNPLSIQQTTLLLLLSVLATVHVGQRLLRQRRRQLGSAPPGPFAWPLIGNAAAVGQAAHLSFARLARRYGDVFQIRLGSCPIVVLNGERAIHQALVQQGSAFADRPSFASFRVVSGGRSMAFGHYSEHWKVQRRAAHSMMRNFFTRQPRSRQVLEGHVLSEARELVALLVRGSADGAFLDPRPLTVVAVANVMSAVCFGCRYSHDDPEFRELLSHNEEFGRTVGAGSLVDVMPWLQYFPNPVRTVFREFEQLNRNFSNFILDKFLRHCESLRPGAAPRDMMDAFILSAEKKAAGDSHGGGARLDLENVPATITDIFGASQDTLSTALQWLLLLFTRYPDVQTRVQAELDQVVGRDRLPCMGDQPNLPYVLAFLYEAMRFSSFVPVTIPHATTANTSVLGYHIPKDTVVFVNQWSVNHDPLKWPNPENFDPARFLDKDGLISKDLTSRVMIFSVGKRRCIGEELSKMQLFLFISILAHQCDFRANPNEPAKMNFSYGLTIKPKSFKVNVTLRESMELLDSAVQNLQAKETCQ	34	15	–
48Arg-119Ala-432Val-453Asn (wt): wild-type CYP1B1 enzyme (protein, UniProt Q16678 1-543, looked up) Cytochrome P450 1B1: MGTSLSPNDPWPLNPLSIQQTTLLLLLSVLATVHVGQRLLRQRRRQLRSAPPGPFAWPLIGNAAAVGQAAHLSFARLARRYGDVFQIRLGSCPIVVLNGERAIHQALVQQGSAFADRPAFASFRVVSGGRSMAFGHYSEHWKVQRRAAHSMMRNFFTRQPRSRQVLEGHVLSEARELVALLVRGSADGAFLDPRPLTVVAVANVMSAVCFGCRYSHDDPEFRELLSHNEEFGRTVGAGSLVDVMPWLQYFPNPVRTVFREFEQLNRNFSNFILDKFLRHCESLRPGAAPRDMMDAFILSAEKKAAGDSHGGGARLDLENVPATITDIFGASQDTLSTALQWLLLLFTRYPDVQTRVQAELDQVVGRDRLPCMGDQPNLPYVLAFLYEAMRFSSFVPVTIPHATTANTSVLGYHIPKDTVVFVNQWSVNHDPLKWPNPENFDPARFLDKDGLINKDLTSRVMIFSVGKRRCIGEELSKMQLFLFISILAHQCDFRANPNEPAKMNFSYGLTIKPKSFKVNVTLRESMELLDSAVQNLQAKETCQ	24	14	–
48Gly-119Ser-432Val-453Asn: CYP1B1 variant enzyme (protein, UniProt Q16678 1-543, looked up, variant R48G A119S) Cytochrome P450 1B1: MGTSLSPNDPWPLNPLSIQQTTLLLLLSVLATVHVGQRLLRQRRRQLGSAPPGPFAWPLIGNAAAVGQAAHLSFARLARRYGDVFQIRLGSCPIVVLNGERAIHQALVQQGSAFADRPSFASFRVVSGGRSMAFGHYSEHWKVQRRAAHSMMRNFFTRQPRSRQVLEGHVLSEARELVALLVRGSADGAFLDPRPLTVVAVANVMSAVCFGCRYSHDDPEFRELLSHNEEFGRTVGAGSLVDVMPWLQYFPNPVRTVFREFEQLNRNFSNFILDKFLRHCESLRPGAAPRDMMDAFILSAEKKAAGDSHGGGARLDLENVPATITDIFGASQDTLSTALQWLLLLFTRYPDVQTRVQAELDQVVGRDRLPCMGDQPNLPYVLAFLYEAMRFSSFVPVTIPHATTANTSVLGYHIPKDTVVFVNQWSVNHDPLKWPNPENFDPARFLDKDGLINKDLTSRVMIFSVGKRRCIGEELSKMQLFLFISILAHQCDFRANPNEPAKMNFSYGLTIKPKSFKVNVTLRESMELLDSAVQNLQAKETCQ	13	5.5	–
48Gly-119Ala-432Val-453Ser: CYP1B1 variant enzyme (protein, UniProt Q16678 1-543, looked up, variant R48G N453S) Cytochrome P450 1B1: MGTSLSPNDPWPLNPLSIQQTTLLLLLSVLATVHVGQRLLRQRRRQLGSAPPGPFAWPLIGNAAAVGQAAHLSFARLARRYGDVFQIRLGSCPIVVLNGERAIHQALVQQGSAFADRPAFASFRVVSGGRSMAFGHYSEHWKVQRRAAHSMMRNFFTRQPRSRQVLEGHVLSEARELVALLVRGSADGAFLDPRPLTVVAVANVMSAVCFGCRYSHDDPEFRELLSHNEEFGRTVGAGSLVDVMPWLQYFPNPVRTVFREFEQLNRNFSNFILDKFLRHCESLRPGAAPRDMMDAFILSAEKKAAGDSHGGGARLDLENVPATITDIFGASQDTLSTALQWLLLLFTRYPDVQTRVQAELDQVVGRDRLPCMGDQPNLPYVLAFLYEAMRFSSFVPVTIPHATTANTSVLGYHIPKDTVVFVNQWSVNHDPLKWPNPENFDPARFLDKDGLISKDLTSRVMIFSVGKRRCIGEELSKMQLFLFISILAHQCDFRANPNEPAKMNFSYGLTIKPKSFKVNVTLRESMELLDSAVQNLQAKETCQ	75	28	–
48Arg-119Ser-432Val-453Ser: CYP1B1 variant enzyme (protein, UniProt Q16678 1-543, looked up, variant A119S N453S) Cytochrome P450 1B1: MGTSLSPNDPWPLNPLSIQQTTLLLLLSVLATVHVGQRLLRQRRRQLRSAPPGPFAWPLIGNAAAVGQAAHLSFARLARRYGDVFQIRLGSCPIVVLNGERAIHQALVQQGSAFADRPSFASFRVVSGGRSMAFGHYSEHWKVQRRAAHSMMRNFFTRQPRSRQVLEGHVLSEARELVALLVRGSADGAFLDPRPLTVVAVANVMSAVCFGCRYSHDDPEFRELLSHNEEFGRTVGAGSLVDVMPWLQYFPNPVRTVFREFEQLNRNFSNFILDKFLRHCESLRPGAAPRDMMDAFILSAEKKAAGDSHGGGARLDLENVPATITDIFGASQDTLSTALQWLLLLFTRYPDVQTRVQAELDQVVGRDRLPCMGDQPNLPYVLAFLYEAMRFSSFVPVTIPHATTANTSVLGYHIPKDTVVFVNQWSVNHDPLKWPNPENFDPARFLDKDGLISKDLTSRVMIFSVGKRRCIGEELSKMQLFLFISILAHQCDFRANPNEPAKMNFSYGLTIKPKSFKVNVTLRESMELLDSAVQNLQAKETCQ	36	17	–
48Arg-119Ala-432Val-453Ser: CYP1B1 variant enzyme (protein, UniProt Q16678 1-543, looked up, variant N453S) Cytochrome P450 1B1: MGTSLSPNDPWPLNPLSIQQTTLLLLLSVLATVHVGQRLLRQRRRQLRSAPPGPFAWPLIGNAAAVGQAAHLSFARLARRYGDVFQIRLGSCPIVVLNGERAIHQALVQQGSAFADRPAFASFRVVSGGRSMAFGHYSEHWKVQRRAAHSMMRNFFTRQPRSRQVLEGHVLSEARELVALLVRGSADGAFLDPRPLTVVAVANVMSAVCFGCRYSHDDPEFRELLSHNEEFGRTVGAGSLVDVMPWLQYFPNPVRTVFREFEQLNRNFSNFILDKFLRHCESLRPGAAPRDMMDAFILSAEKKAAGDSHGGGARLDLENVPATITDIFGASQDTLSTALQWLLLLFTRYPDVQTRVQAELDQVVGRDRLPCMGDQPNLPYVLAFLYEAMRFSSFVPVTIPHATTANTSVLGYHIPKDTVVFVNQWSVNHDPLKWPNPENFDPARFLDKDGLISKDLTSRVMIFSVGKRRCIGEELSKMQLFLFISILAHQCDFRANPNEPAKMNFSYGLTIKPKSFKVNVTLRESMELLDSAVQNLQAKETCQ	49	21	–
461Thr-462Ile (wt*): purified recombinant wild-type CYP1A1 enzyme (protein, UniProt P04798 1-512, looked up) Cytochrome P450 1A1: MLFPISMSATEFLLASVIFCLVFWVIRASRPQVPKGLKNPPGPWGWPLIGHMLTLGKNPHLALSRMSQQYGDVLQIRIGSTPVVVLSGLDTIRQALVRQGDDFKGRPDLYTFTLISNGQSMSFSPDSGPVWAARRRLAQNGLKSFSIASDPASSTSCYLEEHVSKEAEVLISTLQELMAGPGHFNPYRYVVVSVTNVICAICFGRRYDHNHQELLSLVNLNNNFGEVVGSGNPADFIPILRYLPNPSLNAFKDLNEKFYSFMQKMVKEHYKTFEKGHIRDITDSLIEHCQEKQLDENANVQLSDEKIINIVLDLFGAGFDTVTTAISWSLMYLVMNPRVQRKIQEELDTVIGRSRRPRLSDRSHLPYMEAFILETFRHSSFVPFTIPHSTTRDTSLKGFYIPKGRCVFVNQWQINHDQKLWVNPSEFLPERFLTPDGAIDKVLSEKVIIFGMGKRKCIGETIARWEVFLFLAILLQRVEFSVPLGVKVDMTPIYGLTMKHACCEHFQMQLRS	–	–	Km (CYP1A1): 17 µM
